Experimental data reported in patent US20210145976A1 (ARO BIOTHERAPEUTICS, published 2021).
Substitutions are numbered along the chain they refer to. Blank lines part the entries; values can stand above or below the binder they belong to.

Experiments:
[1] = target: T1, recombinant biotinylated CD71 extracellular domain (Sino Biologics) with an N-terminal 6His tag (human, UniProt P02786 89-760, biotinylated (sites not given)); test: screening ELISA, ratio
T1 construct: extracellular domain; also called hCD71; huCD71

[2] = target: T1, recombinant biotinylated CD71 …; test: screening ELISA

T1 sequence (P02786 other isoform, or with tags, fused parts or gaps): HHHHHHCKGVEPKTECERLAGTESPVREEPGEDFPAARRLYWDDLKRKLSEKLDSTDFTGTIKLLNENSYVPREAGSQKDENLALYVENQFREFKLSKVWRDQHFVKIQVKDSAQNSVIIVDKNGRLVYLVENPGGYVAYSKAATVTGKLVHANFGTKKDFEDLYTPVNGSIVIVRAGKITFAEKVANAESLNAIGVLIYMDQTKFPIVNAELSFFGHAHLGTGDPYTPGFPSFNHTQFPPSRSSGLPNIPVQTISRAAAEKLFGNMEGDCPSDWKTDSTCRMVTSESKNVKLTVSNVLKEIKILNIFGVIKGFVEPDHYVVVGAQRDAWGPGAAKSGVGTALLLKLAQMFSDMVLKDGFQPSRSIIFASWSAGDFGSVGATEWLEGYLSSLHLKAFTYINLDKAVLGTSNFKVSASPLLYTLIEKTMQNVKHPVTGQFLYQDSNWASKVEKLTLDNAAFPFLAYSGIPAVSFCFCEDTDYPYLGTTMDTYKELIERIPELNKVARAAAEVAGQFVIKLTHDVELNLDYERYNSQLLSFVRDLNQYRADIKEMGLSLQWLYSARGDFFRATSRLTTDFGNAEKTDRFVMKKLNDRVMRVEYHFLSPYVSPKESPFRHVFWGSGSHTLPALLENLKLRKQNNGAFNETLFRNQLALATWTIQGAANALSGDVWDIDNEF

hCD71:HSA [1]: 1720 | hCD71 [2]: 3.44e+06
B1: SEQ ID NO 89 (designed binder)
chain: MLPAPKNLVVSRVTEDSARLSWTAPDAAFDSFHISYEETPVVGEAIYLRVPGSERSYDLTGLKPGTEYTVAIHGVKGGRESTPLIAPFTT
notes: FN3 domain

hCD71:HSA [1]: 38 | hCD71 [2]: 3.56e+06
B2: SEQ ID NO 127 (designed binder)
chain: MLPAPKNLVVSRVTEDSARLSWTAPDAAFDSFPIPYGESPPSGEAIVLTVPGSERSYDLTGLKPGTEYVVIIRGVKGGGRSGPLSAISTT
notes: FN3 domain

hCD71:HSA [1]: 95 | hCD71 [2]: 2.14e+06
B3: SEQ ID NO 113 (designed binder)
chain: MLPAPKNLVVSRVTEDSARLSWTAPDAAFDSFDIHYKEHSWWGEAIVLTVPGSERSYDLTGLKPGTEYIVPIPGVKGGGISRPLSAIFTT
notes: FN3 domain

hCD71:HSA [1]: 1990 | hCD71 [2]: 3.98e+06
B4: SEQ ID NO 148 (designed binder)
chain: MLPAPKNLVVSRVTEDSARLSWTAPDAAFDSFHIEYEEQYSTGEAIYLRVPGSERSYDLTGLKPGTEYHVDIEGVKGGRRSFPLNAFFTT
notes: FN3 domain

hCD71:HSA [1]: 258 | hCD71 [2]: 3.48e+06
B5: SEQ ID NO 102 (designed binder)
chain: MLPAPKNLVVSRVTEDSARLSWTAPDAAFDSFSIDYDEPQPVGEAIVLTVPGSERSYDLTGLKPGTEYRVDIWGVKGGPTSGPLRATFTT
notes: FN3 domain

hCD71:HSA [1]: 215 | hCD71 [2]: 2.11e+06
B6: SEQ ID NO 213 (designed binder)
chain: B5 chain with S33W, D35Y, D37W, P39I, Q40E, P41R, V42A, V47R, T49D
notes: FN3 domain

hCD71:HSA [1]: 240 | hCD71 [2]: 1.21e+06
B7: SEQ ID NO 161 (designed binder)
chain: MLPAPKNLVVSRVTEDSARLSWTAPDAAFDSFTIRYWEELPTGEAIVLTVPGSERSYDLTGLKPGTEYTVEIFGVKGGYLSRPLSAISTT
notes: FN3 domain

hCD71:HSA [1]: 73 | hCD71 [2]: 957000
B8: SEQ ID NO 153 (designed binder)
chain: MLPAPKNLVVSRVTEDSARLSWTAPDAALDSFRIAYTEYFVGGEAIVLTVPGSERSYDLTGLKPGTEYGVGIYGVKGGAGSSPLSAIFTT
notes: FN3 domain

hCD71:HSA [1]: 495 | hCD71 [2]: 594000
B9: SEQ ID NO 106 (designed binder)
chain: MLPAPKNLVVSRVTEDSARLSWTAPDAAFDSFTIAYEEHGLVGEAIYLRVPGSERSYDLTGLKPGTEYHVGIMGVKGGVFSSPLSAIFTT
notes: FN3 domain

hCD71:HSA [1]: 3860 | hCD71 [2]: 4.83e+06
B10: SEQ ID NO 109 (designed binder)
chain: B9 chain with T33H, H39L, G40V, L41T, V42E, H69L, G71D, M73E, V79H, F80L
notes: FN3 domain

hCD71:HSA [1]: 2100 | hCD71 [2]: 3.88e+06
B11: SEQ ID NO 162 (designed binder)
chain: MLPAPKNLVVSRVTEDSARLSWTAPDAAFDSFHIAYEEATTYGEAIFLRVPGSERSYDLTGLKPGTEYDVWIEGVKGGTISGPLSAIFTT
notes: FN3 domain

hCD71:HSA [1]: 452 | hCD71 [2]: 4.25e+06
B12: SEQ ID NO 220 (designed binder)
chain: MLPAPKNLVVSRVTEDSARLSWTAPDAAFDSFHIIYEEDGTEGEAIYLRVPGSERSYDLTGLKPGTEYEVDIEGVKGGVLSWPLFAEFTT
notes: FN3 domain

hCD71:HSA [1]: 44 | hCD71 [2]: 439000
B13: SEQ ID NO 94 (designed binder)
chain: MLPAPKNLVVSRITEDSARLSWTAPDAAFDSFGIYYYEWWSTGEAIVLTVPGSERSYDLTGPKPGTEYYVKISGVKGGYRSYPLSAIFTT
notes: FN3 domain

hCD71:HSA [1]: 322 | hCD71 [2]: 2.4e+06
B14: SEQ ID NO 111 (designed binder)
chain: MLPAPKNLVVSRVTEDSARLSWTAPDAAFDSFWIYYYESVGTGEAIVLTVPGSERSYDLTGLKPGTEYFVDISGVKVGTYSLPLSAIFTT
notes: FN3 domain

hCD71:HSA [1]: 83 | hCD71 [2]: 2.37e+06
B15: SEQ ID NO 121 (designed binder)
chain: MLPAPKNLVVSRVTEDSARLSWTAPDAAFDSFSIDYPEFPVRGEAIVLTVPGSERSYDLTGPKPGTEYNVTIQGVKGGFPSMPLSAIFTT
notes: FN3 domain

hCD71:HSA [1]: 175 | hCD71 [2]: 605000
B16: SEQ ID NO 124 (designed binder)
chain: B15 chain with P62L, N69A, Q73W, P80T, M82Q
notes: FN3 domain

hCD71:HSA [1]: 2610 | hCD71 [2]: 4.18e+06
B17: SEQ ID NO 140 (designed binder)
chain: B15 chain with S33W, D35S, P37E, F39S, P40D, V41T, R42E, V47Y, T49R, P62L
notes: FN3 domain

hCD71:HSA [1]: 800 | hCD71 [2]: 1.44e+06
B18: SEQ ID NO 91 (designed binder)
chain: MLPAPKNLVVSRVTEDSARLSWTAPDAAFDSFVIEYWERTQPGEAIVLTVPGSERSYDLTGLKPGTEYDVWISGVKGGKWSEPLSAIFTT
notes: FN3 domain

hCD71:HSA [1]: 1090 | hCD71 [2]: 2.41e+06
B19: SEQ ID NO 97 (designed binder)
chain: MLPAPKNLVVSRVTEDSARLSWTAPDAAFDSFFISYFEGWASGEAIHLYVPGSERSYDLTGLKPGTEYSVHIQGVKGGQPSTPLSAIFTT
notes: FN3 domain

hCD71:HSA [1]: 1260 | hCD71 [2]: 2.95e+06
B20: SEQ ID NO 100 (designed binder)
chain: MLPAPKNLVVSRVTEDSARLSWTAPDAAFDSFWIEYWEVVGFGEAIVLTVPGSERSYDLTGLKPGTEYWVGIYGVKGGNPSVPLSAIFTT
notes: FN3 domain

hCD71:HSA [1]: 4020 | hCD71 [2]: 4.83e+06
B21: SEQ ID NO 103 (designed binder)
chain: B20 chain with P3L, W33A, W37F, V39Y, V40T, F42E, W69Y, N79Y, P80L, V82R
notes: FN3 domain

hCD71:HSA [1]: 1540 | hCD71 [2]: 2.31e+06
B22: SEQ ID NO 129 (designed binder)
chain: B20 chain with W33D, W37Y, V39A, F42A, W69T, N79W, P80L, V82K, A86V
notes: FN3 domain

hCD71:HSA [1]: 105 | hCD71 [2]: 853000
B23: SEQ ID NO 99 (designed binder)
chain: MLPAPKNLVVSRVTEDSARLSWTAPDAAFDSFGIQYNEFVFRGEAIVLTVPGSERSYDLTGLKPGTEYFVPISGVKGGDDSRPLSAIFTT
notes: FN3 domain

hCD71:HSA [1]: 104 | hCD71 [2]: 420000
B24: SEQ ID NO 107 (designed binder)
chain: B23 chain with G33F, N37T, F39S, V40H, F41W, R42V, F69A, S73E, D80S, R82T
notes: FN3 domain

hCD71:HSA [1]: 204 | hCD71 [2]: 664000
B25: SEQ ID NO 128 (designed binder)
chain: MLPAPKNLVVSRVTEDSARLSWTAPDAAFDSFIINYIEIVQYGEAIVLTVPGSERSYDLTGLKPGTEYPESIWGVKGGGASSPLSAIFTT
notes: FN3 domain

hCD71:HSA [1]: 239 | hCD71 [2]: 1.45e+06
B26: SEQ ID NO 130 (designed binder)
chain: MLPAPKNLVVSRVTEDSARLSWTAPDAAFDSFHIPYVEAEVPGEAIQLHVPGSERSYDLTGLKPGTEYYVEIWGVKGGFYSPPLIAEFTT
notes: FN3 domain

hCD71:HSA [1]: 2580 | hCD71 [2]: 2.83e+06
B27: SEQ ID NO 87 (designed binder)
chain: MLPAPKNLVVSRVTEDSARLSWTAPDAAFDSFAIEYYEPVPAGEAIYLDVPGSERSYDLTGLKPGTEYDVTIYGVKGGYYSHPLFASFTT
notes: FN3 domain

hCD71:HSA [1]: 1080 | hCD71 [2]: 2.66e+06
B28: SEQ ID NO 157 (designed binder)
chain: B20 chain with W33A, W37Y, V39Y, F42N, W69Q, N79Y, P80Y, V82R
notes: FN3 domain

hCD71:HSA [1]: 1160 | hCD71 [2]: 4.31e+06
B29: SEQ ID NO 172 (designed binder)
chain: MLPAPKNLVVSRVTEDSARLSWTAPDAAFDSFPIEYDEWWALGEAITLIVPASERSYDLTGLKPGTEYVVKIHGVKGGQRSYPLIAFFTT
notes: FN3 domain

hCD71:HSA [1]: 426 | hCD71 [2]: 3.94e+06
B30: SEQ ID NO 143 (designed binder)
chain: MLPAPKNLVVSRVTEDSARLSWTAPDAAFDSFHIAYEEADSEGEAIYLRVPGSERSYDLTGLKPGTEYSVNIQGVKGGIVSFPLHAEFTT
notes: FN3 domain

hCD71:HSA [1]: 1000 | hCD71 [2]: 3.41e+06
B31: SEQ ID NO 142 (designed binder)
chain: B11 chain with E15K, D69E, W71K, E73H, T79A, I80D, G82K, S85V, I87P
notes: FN3 domain

hCD71:HSA [1]: 1970 | hCD71 [2]: 3.64e+06
B32: SEQ ID NO 120 (designed binder)
chain: MLPAPKNLVVSRVTEDSARLSWTAPDAAFDSFRIEYIEWWVGGEAIVLTVPGSERSYDLTGLKPGTEYWVDIKGVKGGKRSYPLSAIFTT
notes: FN3 domain

hCD71:HSA [1]: 1960 | hCD71 [2]: 3.72e+06
B33: SEQ ID NO 171 (designed binder)
chain: B32 chain with R33A, E35R, I37L, V41D, G42V, W69L, D71E, R80F
notes: FN3 domain

hCD71:HSA [1]: 1710 | hCD71 [2]: 3.16e+06
B34: SEQ ID NO 119 (designed binder)
chain: MLPAPKNLVVSRVTEDSARLSWTAPDAAFDSFHIEYEETPQKGEAIFLRVPGSERSYDLTGLKPGTEYVVNIRGVKGGDLSSPLGALFTT
notes: FN3 domain

hCD71:HSA [1]: 71 | hCD71 [2]: 1.84e+06
B35: SEQ ID NO 155 (designed binder)
chain: MLPAPKNLVVSRVTEDSARLSWTAPDAAFDSFPITYRERSQYGEAIVLTVPGSERSYDLTGLKPGTEYVVPIEGVKGGRGSKPLSAIFTT
notes: FN3 domain

hCD71:HSA [1]: 2570 | hCD71 [2]: 4.49e+06
B36: SEQ ID NO 126 (designed binder)
chain: MLPAPKNLVVSRVTEDSARLSWTAPDAAFDSFSIDYLELGESGEAIVLTVPGSERSYDLTGLKPGTEYWVYIFGVKGGYPSAPLSAIFTT
notes: FN3 domain

hCD71:HSA [1]: 1440 | hCD71 [2]: 3.03e+06
B37: SEQ ID NO 139 (designed binder)
chain: B36 chain with S33D, D35S, L37W, L39S, E41K, S42Y, R55S, W69L, Y71D, A82E
notes: FN3 domain
